Laboratory results published in the RNAGym collection of RNA variant scans (doi:10.7554/elife.80360).

B1: HDV Ribozyme (parent)
chain: GGCCGGCAUGGUCCCAGCCUCCUCGCUGGCGCCGGCUGGGCAACAUUCCGAGGGGACCGUCCCCUCGGUAAUGGCGAAUGGGACCCA

Variants of: B1
Experiment: self-cleavage, relative activity (ratio to wild type); higher = more cleavage; co-transcriptional

First: G11U C86U
Second: G11U C86G
The self-cleavage of the first is higher: 0.415 for the first, 0.199 for the second.

Compared with G11U C86A, G10C U23C is higher in self-cleavage: 0.489 for the first, 0.95 for the second.

First: G11C A71G
Second: G11A G39A
The self-cleavage of the first is higher: 0.277 for the first, 0.0936 for the second.

First: G10C G34A
Second: G10C G34U
The self-cleavage of the first is lower: 0.166 for the first, 0.175 for the second.

Compared with G11U C48A, G11C G67C is lower in self-cleavage: 0.423 for the first, 0.115 for the second.

First: G11C G67A
Second: G11C G67U
The self-cleavage of the first is lower: 0.248 for the first, 0.323 for the second.

Going from G10U G52C to G10A U20C, the self-cleavage falls from 0.639 to 0.0234.

First: G11C C85G
Second: G11C U69C
The self-cleavage of the first is higher: 0.831 for the first, 0.317 for the second.

Compared with G11C U69G, G11A G29C is lower in self-cleavage: 0.516 for the first, 0.123 for the second.

Going from G11U G25U to G11A U65A, the self-cleavage rises from 0.0623 to 0.396.

First: G11U C30G
Second: G10C U20C
The self-cleavage of the first is higher: 0.0767 for the first, 0.0739 for the second.

First: G10C U20G
Second: G11A G82A
The self-cleavage of the first is lower: 0.151 for the first, 0.253 for the second.

First: G11A G82U
Second: G10U C85U
The self-cleavage of the first is lower: 0.0744 for the first, 0.946 for the second.

Going from G11A G81U to G11A G81C, the self-cleavage falls from 0.137 to 0.0396.

Compared with G11A G81A, G11C C86A is higher in self-cleavage: 0.0639 for the first, 0.489 for the second.

Going from G11A C75G to G11A C75A, the self-cleavage falls from 0.141 to 0.

Compared with G11A G34C, G10U U37A is higher in self-cleavage: 0.0378 for the first, 0.058 for the second.

First: G10U A71G
Second: G10U A71U
The self-cleavage of the first is higher: 0.799 for the first, 0.639 for the second.

Going from G10C U27C to G11A A56C, the self-cleavage falls from 0.942 to 0.298.

First: G10C A56U
Second: G10C A56G
The self-cleavage of the first is higher: 0.957 for the first, 0.532 for the second.

First: G11A C36G
Second: G11A C36A
The self-cleavage of the first is higher: 0.151 for the first, 0.0446 for the second.

Compared with G11A A77C, G11A A77G is higher in self-cleavage: 0.0898 for the first, 0.208 for the second.

Going from G10C C63U to G10A C63A, the self-cleavage falls from 1.03 to 0.76.

Compared with G11C C64G, G11C C84G is higher in self-cleavage: 0.514 for the first, 0.831 for the second.

First: G10U A56C
Second: G11A A43G
The self-cleavage of the first is higher: 0.878 for the first, 0.0791 for the second.

First: G10U C57G
Second: G10U U65C
The self-cleavage of the first is lower: 0.587 for the first, 0.831 for the second.

Compared with G10C C32G, G10A U65G is higher in self-cleavage: 0.0773 for the first, 0.767 for the second.

Compared with G11A G50C, G11A G50U is lower in self-cleavage: 0.439 for the first, 0.283 for the second.

Going from G11A G50A to G11C C36U, the self-cleavage falls from 0.366 to 0.136.

Compared with G11C C36G, G11A C61G is higher in self-cleavage: 0.148 for the first, 0.332 for the second.

First: G10A C49G
Second: G10U C75U
The self-cleavage of the first is higher: 0.46 for the first, 0.0678 for the second.

First: G10A G25A
Second: G10A G25C
The self-cleavage of the first is higher: 0.126 for the first, 0.0639 for the second.

Going from G10A C66G to G11U G34C, the self-cleavage falls from 0.623 to 0.166.

First: G11U G34A
Second: G10U U69A
The self-cleavage of the first is lower: 0.21 for the first, 0.813 for the second.

Going from G10A G59U to G10A U72A, the self-cleavage falls from 0.95 to 0.485.

First: G11U G35U
Second: G10C C49G
The self-cleavage of the first is lower: 0.115 for the first, 0.453 for the second.

First: G11U C58G
Second: G10A U46G
The self-cleavage of the first is lower: 0.44 for the first, 0.536 for the second.

Going from G10C G11C to G10C G11A, the self-cleavage falls from 0.462 to 0.38.

Compared with G10C A70C, G11U A71C is lower in self-cleavage: 0.923 for the first, 0.405 for the second.

Going from G11A C30U to G10A C36G, the self-cleavage rises from 0.0645 to 0.101.

Going from G10U G55C to G11C U37A, the self-cleavage falls from 0.831 to 0.

Going from G11C U37C to G10C G82U, the self-cleavage rises from 0.201 to 0.348.

Compared with G11A U79C, G10C C58A is higher in self-cleavage: 0.161 for the first, 0.886 for the second.

Compared with G11A C49A, G11A C49U is higher in self-cleavage: 0.363 for the first, 0.386 for the second.

Compared with G10U G76C, G10U G76A is lower in self-cleavage: 0.963 for the first, 0.652 for the second.

Compared with G11C A77C, G11C U23G is lower in self-cleavage: 0.128 for the first, 0.0652 for the second.

Compared with G11C G28U, G11C G28C is lower in self-cleavage: 0.0268 for the first, 0 for the second.

Going from G11C G31A to G10U C58G, the self-cleavage rises from 0.0804 to 0.793.

Compared with G10U C22U, G10A C48U is higher in self-cleavage: 0.188 for the first, 0.895 for the second.

First: G11A A87C
Second: G10U C61U
The self-cleavage of the first is lower: 0.521 for the first, 0.684 for the second.

First: G11C G81U
Second: G10C G76C
The self-cleavage of the first is lower: 0.225 for the first, 0.861 for the second.

First: G10C G76U
Second: G11U C85U
The self-cleavage of the first is higher: 1.16 for the first, 0.767 for the second.

Going from G10U U47G to G10C A77G, the self-cleavage falls from 0.63 to 0.458.

Compared with G10C C86A, G11C A16G is lower in self-cleavage: 1.04 for the first, 0.277 for the second.

Going from G10U U72A to G10C A45C, the self-cleavage falls from 0.277 to 0.231.

First: G10C A45U
Second: G10U G39U
The self-cleavage of the first is higher: 1.11 for the first, 0.346 for the second.

Going from G10U G39A to G11C A51G, the self-cleavage rises from 0.199 to 0.297.

First: G10U G54C
Second: G11C C48A
The self-cleavage of the first is higher: 0.831 for the first, 0.277 for the second.

First: G10C U72A
Second: G10C U72G
The self-cleavage of the first is higher: 0.415 for the first, 0.369 for the second.

First: G10U C41U
Second: G10U C41A
The self-cleavage of the first is lower: 0.583 for the first, 0.892 for the second.

Compared with G10C A87G, G10C A87C is higher in self-cleavage: 0.887 for the first, 1.17 for the second.

First: G11U A83U
Second: G11U A83G
The self-cleavage of the first is lower: 0.138 for the first, 0.175 for the second.

Compared with G10C U47C, G11U C57G is higher in self-cleavage: 0.332 for the first, 0.358 for the second.

First: G11A C14U
Second: G11A C14A
The self-cleavage of the first is higher: 0.277 for the first, 0.148 for the second.

First: G10A G50C
Second: G11U G40C
The self-cleavage of the first is higher: 0.513 for the first, 0.0181 for the second.

First: G11U G40U
Second: G11A C62G
The self-cleavage of the first is lower: 0.18 for the first, 0.437 for the second.

Going from G10U C48A to G11U C75U, the self-cleavage falls from 0.698 to 0.0422.

Going from G11A A51C to G11C C66G, the self-cleavage falls from 0.665 to 0.383.

Compared with G11C C66A, G10A G54C is higher in self-cleavage: 0.285 for the first, 0.582 for the second.

Compared with G10A G54U, G11A G53C is lower in self-cleavage: 0.84 for the first, 0.372 for the second.

First: G11C G73A
Second: G11C G73U
The self-cleavage of the first is lower: 0.0936 for the first, 0.16 for the second.

G11U C21U and G11A U72G are the same in self-cleavage: 0.0923 for the first, 0.0923 for the second.

Going from G11A C32G to G11A C32U, the self-cleavage rises from 0.0683 to 0.133.

First: G10A C44A
Second: G11A C15A
The self-cleavage of the first is higher: 0.321 for the first, 0.108 for the second.

Going from G11U A70C to G11A A42G, the self-cleavage rises from 0.0536 to 0.0692.

Going from G11A A42C to G10U U79A, the self-cleavage rises from 0.101 to 0.352.

Compared with G10U G17C, G11A C48A is higher in self-cleavage: 0.359 for the first, 0.506 for the second.

Going from G11A C48G to G11A G35U, the self-cleavage falls from 0.288 to 0.149.

Going from G10C C44U to G11C A87U, the self-cleavage falls from 0.582 to 0.453.

First: G10U C26A
Second: G11C U79C
The self-cleavage of the first is higher: 0.678 for the first, 0.121 for the second.

First: G11A G38U
Second: G10C U79C
The self-cleavage of the first is lower: 0 for the first, 0.132 for the second.

Going from G11C C62G to G11C C62U, the self-cleavage rises from 0.214 to 0.271.

First: G11U C19U
Second: G10U G50U
The self-cleavage of the first is lower: 0.0489 for the first, 0.796 for the second.

G11C A45G showed a self-cleavage of 0.249.
